Assay [1] deals with VP1 pentamer of BKV genotype I (truncated VP1, residues 31 to 301, C104S) (BK virus genotype I (Dunlop sequence)) (UniProt P03088). The assay is described as follows: BLI (OctetRED96e), biotinylated VP1 pentamer on streptavidin sensor, mAb 0 to 40 nM in solution.
For assay [2], the target named is VP1 on BKV genotype II pseudovirions (GBR-12; AB263920) (BK virus genotype II (GBR-12; AB263920)) (UniProt P14996). Description: cell-based or functional assay.
The target of assay [3] is VP1 on entire replicative virions of BK virus genotype Ia (Dunlop strain; ATCC VR-837) (BK virus genotype Ia (Dunlop strain)) (UniProt P03088). The assay is described as follows: cell-based or functional assay.
For assay [4], the target named is VP1 on BKV genotype Ia pseudovirions (BK-D; JF894228) (BK virus genotype Ia (BK-D; JF894228)) (UniProt P03088). Description: cell-based or functional assay.
Assay [5] deals with VP1 on entire replicative virions of BKV genotype II (patient's isolate) (BK virus genotype II). The assay is described as follows: cell-based or functional assay.

The term Kd denotes the concentration at which binding is half-saturated. Read a low Kd as higher affinity.

Chain of MTX005 from Memo Therapeutics AG (referred as 319C07 in WO2021/250097) (antibody) (VH): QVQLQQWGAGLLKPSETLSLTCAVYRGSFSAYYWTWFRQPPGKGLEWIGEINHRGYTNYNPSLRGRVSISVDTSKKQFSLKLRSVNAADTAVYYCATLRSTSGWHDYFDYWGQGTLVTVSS
Chain of MTX005 from Memo Therapeutics AG (referred as 319C07 in WO2021/250097) (antibody) (VL): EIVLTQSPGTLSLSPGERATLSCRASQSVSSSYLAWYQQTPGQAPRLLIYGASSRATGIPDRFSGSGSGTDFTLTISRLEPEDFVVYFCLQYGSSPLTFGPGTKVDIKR

On to “MTX005 from Memo Therapeutics AG (referred as 319C07 in WO2021/250097) (antibody)”, for which, in assay [1], the Kd worked out at 17.9 nM. Further, the IC50, neutralization of BKV pseudovirions (luciferase, 293TT cells) came to 0.08 ng/mL in assay [2] and 0.03 ng/mL in assay [4]. In addition, the IC50, neutralization of fully replicative BKV virions (MRC5 cells) in assay [3] is 0.05 ng/mL; in assay [5], 0.03 ng/mL.

These data come from patent EP4659810A1.
